Patent US20190309055A1 (NORDIC BIOSCIENCE A S, published 2019)

What was measured:
[1] = biological target: T1, elongated peptide KPGVISVMGTA; assay: competitive ELISA, serial 2-fold dilutions of peptide
T1 peptide: KPGVISVMGTA

[2] = biological target: T2, truncated peptide KPGVISVMG; assay: as above
T2 peptide: KPGVISVMG

[3] = biological target: T3, standard peptide KPGVISVMGT (last 10 amino acids of the type VI collagen α3 chain, 3168-3177); assay: competitive ELISA, peptide specificity test
T3 construct: also called STD peptide; immunogenic peptide
T3 peptide: KPGVISVMGT

binding result [1]: no binding
binding result [2]: no binding
binding result [3]: binds
B1: monoclonal antibody 10A3 (antibody, mouse IgG1, kappa, V domains shown)
VH: EVQLQQSGPVMVKPGTSVKTSCKASGYTFTDFNMNWVKQSHGKSLEWIGAINPHNGATSYNQKFSGKATLTVDKSSSTAYMELNSLTSDDSAVYYCARWGNGKNSWGQGTTLTVSS
VL: DVVMTQTPLSLPVNLGDQASISCRSSQRIVHSNGITFLEWYLQKPGQSPKLLIYRVSNRFSGVPDRFSGSGSGTDFTLKISRVEAEDLGLYYCFQGSHVPLTFGAGTRLELKR
notes: Mouse IgG1/kappa from hybridoma; also called the chosen antibody; HRP conjugated monoclonal antibody 10A3
